In PMC11106675, “Synthesis of 1,4-azaphosphinine nucleosides and evaluation as inhibitors of human cytidine deaminase and APOBEC3A” (Beilstein Journal of Organic Chemistry, 2024):

Substrate: Nc1ccn([C@H]2C[C@H](O)[C@@H](CO)O2)c(=O)n1
Test: UV kinetic assay of hCDA-catalysed 2'-deoxycytidine deamination
Format: biochemical, human
Conditions: other: pH 7.4, fitted in the experiment with inhibitor β-anomer of Vb, 25.0 °C
Method: We monitored the hCDA-catalysed deamination of dC at 286 nm and analysed the kinetic profiles at various inhibitor concentrations using a global regression analysis of the kinetic data using Lambert’s W function. This method provides better estimates for the Michaelis–Menten constant (KM) and maximum velocity (Vmax) than nonlinear regression analysis of the initial rate (V0). […] Then, KM for the substrate and Ki for each inhibitor were calculated, assuming competitive nature of the inhibitors (Table 1).
We assumed that protonation of Va might result in some inhibition of hCDA. […] This means that the pH value of the assay should be close to pH 1.5 to see any meaningful effect of partially protonated compound Va, but hCDA would be denatured at this pH value. By lowering the pH value to 6.0, dZ (IIc) started to lose potency against hCDA (Table 1), which might be a result of protonation of the pyrimidine ring in dZ (IIc). […]
Figure S10. hCDA (27nM) catalysed deamination of 2'-deoxycitidine (⁓1.5 mM) in the absence (plus) and presence of 5 µM 2'-deoxyzebularine (IIc, asterisk) monitored by measuring absorbance at 286 nm over time in 100 mM NaCl, 1 mM TCEP, 50 mM phosphate buffer at 25 °C, at pH 7.4. […]
where mm(t) calculates the current substrate concentration with respect to the time, t. […] A summary of the measured inhibition […]
Uncertainty of Ki was calculated using error-propagation method. […]

B1: human cytidine deaminase (hCDA) (Homo sapiens) (protein)
chain: MAQKRPACTLKPECVQQLLVCSQEAKKSAYCPYSHFPVGAALLTQEGRIFKGCNIENACYPLGICAERTAIQKAVSEGYKDFRAIAIASDMQDDFISPCGACRQVMREFGTNWPVYMTKPDGTYIVMTVQELLPSSFGPEDLQKTQ
notes: purchased Sigma-Aldrich SRP6372; host or cells: E. coli
- Km: 240 ± 150 µM
